Consider two molecules from patent publication US20130295112A1 (AbbVie / Abbott, published 2013).

For experiment [1], the target named is recombinant human beta nerve growth factor (human) (UniProt P01138). The experiment can be described thus: cell-based or functional assay.
Experiment [2] has as its target T1, recombinant rat beta nerve growth factor (rat, UniProt P25427 122-241). The experiment can be described thus: cell-based or functional assay.
In experiment [3] the target is T1, recombinant rat beta nerve growth factor. The experiment can be described thus: cell-based or functional assay. This is another data set of the same source.
Experiment [4] concerns the target T2, human neurotrophin 3 (NT3) (human, UniProt P20783 139-257).
T2 construct: Bought protein coated on ELISA plates
T2 sequence (looked up): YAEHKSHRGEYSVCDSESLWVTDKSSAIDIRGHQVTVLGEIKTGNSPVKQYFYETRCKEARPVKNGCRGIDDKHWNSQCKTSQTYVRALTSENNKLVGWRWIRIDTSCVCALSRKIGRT
The experiment can be described thus: ELISA, plates coated with human NT3, PG110 titrated, fluorescence read-out. The method, then: (§1) The selectivity profile of PG110 binding to human neurotrophins was determined using an Enzyme-Linked ImmunoSorbent Assay (ELISA) binding assay. ELISA plates were coated with 100 ng/well of either human NGF (R&D Systems, Cat. No. 256-GF), brain-derived neurotrophic factor (BDNF) (R&D Systems, Cat. No. 248-BD), neurotrophin 3 (NT3) (R&D Systems, Cat. No. 267-N3) or neurotrophin 4 (NT4) (R&D Systems, Cat. No. 268-N4). PG110 was added to neurotrophin-coated wells in the concentration range 3 pM-3 nM. After washing (PBS in 0.5% (v/v) Tween 20, pH 7.3), PG110 binding was detected using a biotinylated anti-human IgG antibody (Rockland Immunochemical Inc., Cat. No. 609-1602) coupled with streptavidin-linked alkaline phosphatase (Sigma Aldrich, Cat. No. S2890), followed by development of a color reaction by addition of 4-methylumbelliferyl phosphate (Sigma Aldrich, Cat. No. M3168). The reaction product was quantified using a fluorimeter (excitation at 360 nm; emission at 440 nm).
In general terms: ELISA stands for enzyme-linked immunosorbent assay.

Experiment [5] concerns the target T1, recombinant rat beta nerve growth factor. The experiment can be described thus: SPR (BIAcore), rrNGF immobilised on CM5 (60 RU), PG110 as analyte, 37 C, 1:1 Langmuir, mean of 3. An excerpt: BIAcore analysis was used to evaluate the binding kinetics of the interaction between PG110 and either recombinant rat NGF (rrNGF) or recombinant human NGF (rhNGF).
Recombinant human beta nerve growth factor (rhNGF) (R&D Systems, Cat. No. 256 GF/CF) or recombinant rat beta nerve growth factor (rrNGF) (R&D Systems, Cat. No. 556 GF/CF) was immobilized covalently on CM5 sensor chips (GE Healthcare, formerly Biacore AB, Uppsala, Sweden) via primary amine groups using the amine coupling kit (GE Healthcare), with HBSEP (10 mM 4-(2-hydroxyethyl)-1-piperazineethanesulfonic acid (HEPES), 150 mM NaCl, 3 mM ethylene-diamine-tetraacetic acid (EDTA) and 0.005% Tween® 20, pH 7.4) as running buffer. The sensor chip surface was activated by injection of a mixture of 400 mM N-(3-Dimethylaminopropyl)-N′-ethylcarbodiimide (EDC) and 100 mM N-Hydroxysuccinimide (NHS) (1:1, v/v) for 7 minutes at a flow rate of 10 μl/min. β-NGF (rh or rr) was diluted to 200 ng/ml in 10 mM sodium acetate pH 4.0 and the diluted solution was injected over the activated surface for various times to yield different surface densities. For quantitative interaction analyses, a surface density of 60 RU was prepared by injection of 50 μl diluted β-NGF (contact time 5 minutes). Non-reacted NHS esters were deactivated with 70 μl (contact time 7 minutes) ethanolamine solution (1 M, pH 8.5).
For orientation: Surface plasmon resonance follows binding to a sensor surface in real time, without labels.

In the next experiment the target is recombinant mouse NGF (mouse, UniProt P01139 122-241, limits assumed). Briefly: cell-based or functional assay.
Chain of recombinant mouse NGF (P01139 122-241 limits assumed): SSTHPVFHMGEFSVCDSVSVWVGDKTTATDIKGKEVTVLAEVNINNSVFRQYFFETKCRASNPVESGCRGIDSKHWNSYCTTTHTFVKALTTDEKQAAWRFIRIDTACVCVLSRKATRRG
Experiment [6] has as its target T1, recombinant rat beta nerve growth factor. Briefly: cell-based or functional assay. This is another data set of the same source.
The target of experiment [7] is T3, human brain-derived neurotrophic factor (BDNF) (human, UniProt P23560 129-247).
T3 construct: Bought protein coated on ELISA plates; also called human BDNF
T3 sequence (looked up): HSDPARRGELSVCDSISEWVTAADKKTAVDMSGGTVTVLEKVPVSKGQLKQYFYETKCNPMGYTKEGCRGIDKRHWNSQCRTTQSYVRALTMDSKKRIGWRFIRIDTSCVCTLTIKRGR
Briefly: ELISA, plates coated with human BDNF, PG110 titrated, fluorescence read-out. How it is done:
as §1

Experiment [8] deals with T4, human neurotrophin 4 (NT4) (human, UniProt P34130 81-210).
T4 construct: Bought protein coated on ELISA plates
T4 sequence (looked up): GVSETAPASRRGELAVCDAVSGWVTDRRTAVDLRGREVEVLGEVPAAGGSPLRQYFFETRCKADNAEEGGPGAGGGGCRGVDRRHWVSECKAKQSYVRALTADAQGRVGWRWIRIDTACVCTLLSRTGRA
Briefly: ELISA, plates coated with human NT4, PG110 titrated, fluorescence read-out. The method, then: as §1

As a reminder, the Kd is the free concentration of one partner at which half of the binding sites on the other are occupied at equilibrium, for simple one-to-one binding. For orientation: koff means the rate constant with which the complex falls apart. A word on the kon: it is the rate constant with which the complex forms.

T1 sequence (P25427 122-241 limits assumed): as the sequence (P01139 122-241 limits assumed) above, with A40G, R50K, S61P, E94D, T117A counted along it
Chain of recombinant human beta nerve growth factor (human) (P01138 122-241 limits assumed): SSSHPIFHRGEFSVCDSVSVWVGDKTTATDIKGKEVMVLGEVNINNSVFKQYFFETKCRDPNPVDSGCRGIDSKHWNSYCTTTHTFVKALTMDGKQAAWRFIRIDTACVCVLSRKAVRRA

With rat αD11 antibody (precursor of PG110), in experiment [1], the IC50, TF1 cell proliferation mediated by human NGF (MTT), geomean, n=3; Batch 1 is 0.0637 µg/mL and the IC50, TF1 cell proliferation mediated by human NGF (MTT), n=1; Batch 2 stood at 0.107 µg/mL. In experiment [2], the IC50, TF1 cell proliferation mediated by rat NGF (MTT), geomean, n=3; Batch 1 is 0.0448 µg/mL and the IC50, TF1 cell proliferation mediated by rat NGF (MTT), n=1; Batch 2 turned out to be 0.0549 µg/mL.

B1: PG110 (humanized anti-NGF antibody, Hu-alphaD11 variable regions with Ser-to-Pro hinge-mutated human IgG4 constant region and human kappa light chain) (antibody, V domains shown)
VH: EVQLVESGGGLVQPGGSLRLSCAASGFSLTNNNVNWVRQAPGKGLEWVGGVWAGGATDYNSALKSRFTISRDNSKNTAYLQMNSLRAEDTAVYYCARDGGYSSSTLYAMDAWGQGTLVTVSS
VL: DIQMTQSPSSLSASVGDRVTITCRASEDIYNALAWYQQKPGKAPKLLIYNTDTLHTGVPSRFSGSGSGTDYTLTISSLQPEDFATYFCQHYFHYPRTFGQGTKVEIKR
notes: expressed in CHO cells; also called PG110 antibody; PG110 mAb
Regarding B1, in experiment [3], the “IC50, TF1 cell proliferation mediated by rat NGF (MTT), geomean, n=2” value stood at 0.0262 µg/mL. Further, the binding result in experiment [4] is reported as “no binding”. In experiment [5], the Kd was 0.092 nM, the koff worked out at 1.5e-05 s⁻¹ and the kon came to 170000 M⁻¹ s⁻¹. The “IC50, TF-1 cell proliferation stimulated by 10 ng/ml mouse recombinant NGF (MTT), geomean, n=3” value with recombinant mouse NGF is 0.0308 µg/mL. In experiment [6], the “IC50, TF-1 cell proliferation stimulated by 10 ng/ml rat recombinant NGF (MTT), geomean, n=5” value worked out at 0.0278 µg/mL. The binding result in experiment [7] is “no binding”. In addition, in experiment [8], the binding result is reported as “no binding”.
